Data published in IntAct's records for PubMed 17267444.

Assays:
scar2_arath SCAR2 = scar2_arath SCAR2 (UniProt Q5XPJ9)
scar1_arath SCAR1 = scar1_arath SCAR1 (UniProt Q6AWX6)
scarl_arath WAVE5 = scarl_arath WAVE5 (UniProt Q5XPK0)
spk1_arath SPK1 = spk1_arath SPK1 (UniProt Q8SAB7)

Chain of Rac-like GTP-binding protein ARAC9 (Arabidopsis thaliana (Mouse-ear cress)), Q9XGU0 G27V (Q9XGU0 whole entry G27V): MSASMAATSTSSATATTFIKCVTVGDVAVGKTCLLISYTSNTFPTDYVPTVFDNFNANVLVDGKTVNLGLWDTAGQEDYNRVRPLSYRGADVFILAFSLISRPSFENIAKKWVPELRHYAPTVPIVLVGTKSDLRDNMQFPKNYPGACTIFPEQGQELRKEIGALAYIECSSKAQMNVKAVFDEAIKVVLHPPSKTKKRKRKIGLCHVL
Chain of scarl_arath WAVE5 (Q5XPK0 whole entry): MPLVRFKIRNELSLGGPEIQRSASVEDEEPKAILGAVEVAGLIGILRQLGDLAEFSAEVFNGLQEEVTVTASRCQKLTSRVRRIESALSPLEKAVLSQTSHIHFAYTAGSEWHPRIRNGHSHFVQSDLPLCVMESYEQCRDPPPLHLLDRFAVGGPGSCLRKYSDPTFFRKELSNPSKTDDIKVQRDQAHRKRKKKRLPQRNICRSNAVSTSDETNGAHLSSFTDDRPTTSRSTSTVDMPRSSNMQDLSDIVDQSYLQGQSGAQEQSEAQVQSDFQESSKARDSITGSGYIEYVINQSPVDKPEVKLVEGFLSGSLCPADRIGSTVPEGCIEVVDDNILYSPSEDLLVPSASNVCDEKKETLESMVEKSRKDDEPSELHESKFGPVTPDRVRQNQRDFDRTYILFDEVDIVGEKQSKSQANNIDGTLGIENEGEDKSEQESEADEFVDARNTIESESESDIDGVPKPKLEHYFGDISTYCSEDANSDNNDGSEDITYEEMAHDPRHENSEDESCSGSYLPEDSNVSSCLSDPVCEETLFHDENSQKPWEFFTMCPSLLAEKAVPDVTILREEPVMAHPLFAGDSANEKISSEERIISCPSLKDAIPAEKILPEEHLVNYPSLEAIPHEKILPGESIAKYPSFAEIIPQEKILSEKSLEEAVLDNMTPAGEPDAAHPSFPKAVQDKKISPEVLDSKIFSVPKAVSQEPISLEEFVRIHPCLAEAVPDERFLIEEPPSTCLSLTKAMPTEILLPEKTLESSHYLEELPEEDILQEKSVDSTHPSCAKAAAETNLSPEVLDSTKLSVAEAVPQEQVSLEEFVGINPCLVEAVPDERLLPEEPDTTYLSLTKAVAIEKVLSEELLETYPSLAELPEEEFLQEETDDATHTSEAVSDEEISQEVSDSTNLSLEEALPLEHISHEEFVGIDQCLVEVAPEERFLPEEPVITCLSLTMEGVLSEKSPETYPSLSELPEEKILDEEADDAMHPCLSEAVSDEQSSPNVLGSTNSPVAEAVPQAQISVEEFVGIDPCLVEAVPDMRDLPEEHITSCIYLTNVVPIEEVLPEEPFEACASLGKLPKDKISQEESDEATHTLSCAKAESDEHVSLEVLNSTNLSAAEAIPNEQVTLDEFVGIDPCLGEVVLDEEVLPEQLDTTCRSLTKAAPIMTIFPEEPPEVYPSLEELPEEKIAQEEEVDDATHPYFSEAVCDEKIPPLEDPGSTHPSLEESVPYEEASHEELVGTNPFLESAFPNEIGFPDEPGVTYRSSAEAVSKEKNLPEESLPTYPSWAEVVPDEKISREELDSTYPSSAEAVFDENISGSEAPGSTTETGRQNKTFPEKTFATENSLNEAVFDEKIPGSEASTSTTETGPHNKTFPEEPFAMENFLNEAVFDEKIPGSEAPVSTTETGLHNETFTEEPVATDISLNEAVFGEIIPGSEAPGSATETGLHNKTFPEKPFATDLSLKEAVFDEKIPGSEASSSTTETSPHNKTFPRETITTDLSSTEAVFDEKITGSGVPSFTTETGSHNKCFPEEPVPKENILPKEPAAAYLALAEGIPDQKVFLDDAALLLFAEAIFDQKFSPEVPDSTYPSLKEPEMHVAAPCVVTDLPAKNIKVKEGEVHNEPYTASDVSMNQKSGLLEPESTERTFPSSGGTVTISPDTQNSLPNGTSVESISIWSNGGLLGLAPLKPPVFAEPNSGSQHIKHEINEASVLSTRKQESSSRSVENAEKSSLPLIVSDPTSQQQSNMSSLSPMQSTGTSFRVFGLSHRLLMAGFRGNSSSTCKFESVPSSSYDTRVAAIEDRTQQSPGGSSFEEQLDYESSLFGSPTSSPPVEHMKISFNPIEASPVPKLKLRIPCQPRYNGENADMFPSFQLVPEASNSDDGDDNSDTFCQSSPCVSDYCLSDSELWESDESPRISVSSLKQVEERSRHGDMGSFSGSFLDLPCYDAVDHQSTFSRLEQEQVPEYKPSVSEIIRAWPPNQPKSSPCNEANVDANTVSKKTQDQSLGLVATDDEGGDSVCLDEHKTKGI
Chain of scar2_arath SCAR2 (Q5XPJ9 whole entry): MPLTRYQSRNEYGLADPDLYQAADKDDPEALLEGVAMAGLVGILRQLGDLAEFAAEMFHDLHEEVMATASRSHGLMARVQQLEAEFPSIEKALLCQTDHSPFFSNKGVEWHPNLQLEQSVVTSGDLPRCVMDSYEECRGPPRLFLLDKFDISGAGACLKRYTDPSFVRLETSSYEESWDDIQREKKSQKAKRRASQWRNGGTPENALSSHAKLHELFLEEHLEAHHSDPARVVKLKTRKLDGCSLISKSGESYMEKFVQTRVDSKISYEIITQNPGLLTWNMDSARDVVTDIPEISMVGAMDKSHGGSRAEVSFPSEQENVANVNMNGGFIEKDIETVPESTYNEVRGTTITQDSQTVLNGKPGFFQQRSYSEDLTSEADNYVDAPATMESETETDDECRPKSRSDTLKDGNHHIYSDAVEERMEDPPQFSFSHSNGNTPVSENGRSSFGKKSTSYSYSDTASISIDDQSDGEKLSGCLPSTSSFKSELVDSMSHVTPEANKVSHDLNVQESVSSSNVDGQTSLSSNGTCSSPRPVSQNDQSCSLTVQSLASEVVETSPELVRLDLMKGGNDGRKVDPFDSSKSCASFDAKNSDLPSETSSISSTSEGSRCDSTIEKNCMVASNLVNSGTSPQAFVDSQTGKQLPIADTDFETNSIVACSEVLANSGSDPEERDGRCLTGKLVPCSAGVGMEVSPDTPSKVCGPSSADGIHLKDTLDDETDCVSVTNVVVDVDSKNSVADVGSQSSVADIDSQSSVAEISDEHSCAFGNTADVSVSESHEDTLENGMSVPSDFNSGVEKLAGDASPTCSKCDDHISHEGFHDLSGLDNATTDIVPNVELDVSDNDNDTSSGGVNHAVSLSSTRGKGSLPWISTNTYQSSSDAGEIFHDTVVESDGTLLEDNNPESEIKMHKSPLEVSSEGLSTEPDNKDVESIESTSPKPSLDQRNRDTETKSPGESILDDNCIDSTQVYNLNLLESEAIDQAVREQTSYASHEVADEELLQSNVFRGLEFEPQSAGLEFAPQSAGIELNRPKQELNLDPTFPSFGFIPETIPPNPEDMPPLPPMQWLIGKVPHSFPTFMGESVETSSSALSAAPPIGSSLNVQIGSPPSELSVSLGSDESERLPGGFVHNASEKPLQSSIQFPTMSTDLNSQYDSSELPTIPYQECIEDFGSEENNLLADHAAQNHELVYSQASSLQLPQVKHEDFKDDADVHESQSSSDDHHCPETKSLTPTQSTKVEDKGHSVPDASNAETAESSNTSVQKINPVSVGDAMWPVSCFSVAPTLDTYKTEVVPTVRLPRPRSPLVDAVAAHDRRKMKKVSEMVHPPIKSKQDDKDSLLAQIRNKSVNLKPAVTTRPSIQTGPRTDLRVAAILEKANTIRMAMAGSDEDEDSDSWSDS
Chain of scar1_arath SCAR1 (Q6AWX6 whole entry): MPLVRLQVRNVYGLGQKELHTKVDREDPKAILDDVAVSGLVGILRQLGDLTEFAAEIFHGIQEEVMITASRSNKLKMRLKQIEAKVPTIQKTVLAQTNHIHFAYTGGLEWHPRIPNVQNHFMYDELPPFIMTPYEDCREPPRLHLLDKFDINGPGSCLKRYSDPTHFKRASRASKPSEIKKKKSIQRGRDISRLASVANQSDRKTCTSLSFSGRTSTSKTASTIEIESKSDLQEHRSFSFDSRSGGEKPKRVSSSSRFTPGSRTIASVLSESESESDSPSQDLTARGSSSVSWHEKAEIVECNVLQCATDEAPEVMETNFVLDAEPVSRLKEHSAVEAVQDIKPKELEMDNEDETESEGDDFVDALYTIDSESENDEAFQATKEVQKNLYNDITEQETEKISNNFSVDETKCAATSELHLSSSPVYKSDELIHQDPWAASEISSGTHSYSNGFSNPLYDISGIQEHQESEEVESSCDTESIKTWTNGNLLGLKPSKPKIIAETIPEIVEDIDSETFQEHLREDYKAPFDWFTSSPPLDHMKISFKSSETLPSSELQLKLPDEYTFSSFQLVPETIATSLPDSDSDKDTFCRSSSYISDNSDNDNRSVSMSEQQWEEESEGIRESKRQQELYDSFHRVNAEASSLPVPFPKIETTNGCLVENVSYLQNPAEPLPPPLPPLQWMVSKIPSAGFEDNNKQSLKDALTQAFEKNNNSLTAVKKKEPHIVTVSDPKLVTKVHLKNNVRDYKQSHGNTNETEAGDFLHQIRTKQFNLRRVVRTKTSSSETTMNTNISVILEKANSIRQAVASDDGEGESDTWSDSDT
Chain of Rac-like GTP-binding protein ARAC2 (Arabidopsis thaliana (Mouse-ear cress)), Q38903 T20D (Q38903 whole entry T20D): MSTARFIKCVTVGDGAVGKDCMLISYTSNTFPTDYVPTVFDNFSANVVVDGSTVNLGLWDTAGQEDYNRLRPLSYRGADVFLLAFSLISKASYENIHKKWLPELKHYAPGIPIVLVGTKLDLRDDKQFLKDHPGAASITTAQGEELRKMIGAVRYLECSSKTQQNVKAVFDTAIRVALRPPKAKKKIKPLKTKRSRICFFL

Substance | effect of a mutation on the interaction (scar2_arath SCAR2) | effect of a mutation on the interaction (scar1_arath SCAR1) | effect of a mutation on the interaction (scarl_arath WAVE5) | effect of a mutation on the interaction (spk1_arath SPK1)
Rac-like GTP-binding protein ARAC2 (Arabidopsis thaliana (Mouse-ear cress)), Q38903 T20D | disrupting interaction | – | – | –
Rac-like GTP-binding protein ARAC9 (Arabidopsis thaliana (Mouse-ear cress)), Q9XGU0 G27V | – | disrupting interaction | disrupting interaction | disrupting interaction
